Laboratory results reported in the nanobody polyreactivity screen of Harvey et al. (2022).

Assay: yeast display, Sf9 membrane polyspecificity reagent, FACS + sequencing; frameworks hold sequencing errors
Summary of the method: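 After 36–48 hours of galactose induction, yeast (Saccharomyces cerevisiae BJ5465) displaying a synthetic nanobody library were stained at 4 °C for 1 hour with 10% biotinylated, detergent-solubilized Sf9 membrane reagent. Streptavidin microbeads enriched the stained cells before FACS sorting into low and high (top ~1%) gates on anti-HA and streptavidin fluorescence. Each clone's polyreactivity label reflects its gate of origin.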

QVQLVESGGGLVQAGGSLRLSCAASGSNFSHYAMGWYRQAPGKESELVAAISSGDSTNYADSVKGRFTISRDNAKNTVYLQMSSVKPEDTAVYYCAKTRRRLLTRYDYWGQGTQVSVSS
polyreactivity (PSR sort gate): low polyreactivity

QVQLVESGGGLVQAGGSLRLSCAASGSIFSYYAMGWYRQAPGKERELVATISVSGGNTYYADSVKGRFTISRDYAKNTVYLQMNSLKPEDTAVYYCAKYNWYRAWRYGYWGQGTQVTVSS
polyreactivity (PSR sort gate): high polyreactivity

QVQLVESGGGLVQAGGSRRLSCAGSGSTVTGYAMGWYRQAPGKDRELVAAISSRGGSTYYADSVKGRFTISRDNAKTTVYLQMNSLKPEDTAGYYCATSYKSEQYHGKPFYYWGQGTQVTVSS
polyreactivity (PSR sort gate): high polyreactivity

QLQLVESGGGLVQAGGSLRLSCAASGNTFLLNAMGWYRQAPGKERELVAGIRWGAGRSYYADSVKGRFTISRDNAMNTVYVQMNSLKAEDTAVYSGAADPWSGSDYWGQGTQVTVSS
polyreactivity (PSR sort gate): low polyreactivity

QVQLVESGGGLVQAGGSIRLSCAASGFIFGLYDMGWYRQAPGKERELDAAISWSGGSTYYADSVKGRFTISRDNAKNTVYLQMNSLKPEDTAVYYCNKDLYADGEYNYDYWGQGTQVTVSS
polyreactivity (PSR sort gate): low polyreactivity

QVQLVESGGGLVQEGGSLRLSCAASGFTFRYYAMGWYRQAPGKERELVAAIRWNGGSTYYADSVKGRFTISRDNAKNTVYLQMNRLKPEDTAVYYCNAAYSYGRYEYVYWGQGTQVTVSS
polyreactivity (PSR sort gate): high polyreactivity

QVQLVESGGGLVQAGGSLRLSCAASGSIFLKYVMGWYRQATGKEMELVAAISSAGGTYYADSVKGRFTISRDNEKYTVYLQMICLKPEDTAVYYCGRRPYRGSYAYDYWGQGSQVTVSS
polyreactivity (PSR sort gate): low polyreactivity

QVQLVESGGGLVQAGGRLRLSCAASGFTLDRYAMGWYRQAPGKERELVAAITQSGVSTYYADSVKGLFTISRDNAKNTVYLQKNSLKPEETAVYYCNALLRRTYYRYTWGYGYWGQGTQVTVSS
polyreactivity (PSR sort gate): high polyreactivity

QVQLVESGGGLVQAGGSLRLSCAASGRTFSTYAMGWYRQAPGKERELVAAITSSGTSTYYADSVKGRFTISRDNAKNTVYLQMNSLKPEDTAVYYCAAVTKRYLAYDYWGQGTQVTVSS
polyreactivity (PSR sort gate): high polyreactivity

QVQLVESGGGLVQAGGSLRLSCAASGRTFYFNSMGWYRQAPGKERELVASISYGSNTNYADSVKGRFTISRDNAKNTVYLQMNSLKPEDTAVYYCAVRWVYRTYSWGARYGRYDYWGQGTQVTVSS
polyreactivity (PSR sort gate): high polyreactivity

QVQLVESGGGLVQAGGSLRLSCAASGSTFGWNAMGWYRPAPGKERELVAAISSSGGSTNYADSVKGRFTISRDNAKNTVYLQMNSLKPEDTAVYYCAARYRTLTKYYWGQGTQVTVSS
polyreactivity (PSR sort gate): low polyreactivity

QVQLVESGGGLVQAGGSLRLSCAASGSIFGFNAMGWYRQAPGKERELVAAITNSGVRTYYADSVKGRFTISRDNAKNTVYLQMNSLKPEDTAVYYCAAEPDTYWYTYDYWGQGTQVTVSS
polyreactivity (PSR sort gate): low polyreactivity

QVQLVESGGGLVQAGGSLRLSCAASGSIFNPYAMGWYRQAPGKERELVAVIRSRGDRTYYADSVKGRFTISRDYAKNTVYLQMNSLKPEDTAVYYCAVRAQESLWKQYYYWGQGTQVTVSS
polyreactivity (PSR sort gate): high polyreactivity

QVQLVESGGGLVQAGGSLRLSCAASGNTFSGNAMGWYRQAPGKQRELVATINSGGGSTNYADSVTGRFSISRDNAKNTVYLQMNSLKPEDTAGYYCAASAYTWRGIDSSYLTVTYDYWGQGTQVTVSS
polyreactivity (PSR sort gate): low polyreactivity

QVQLVESGGGLVQAGGSLRLSCAASGITFGTYAMGWYRQAPGKERELVAAISQSSGRTYYADSVKGRFTISRDNAKNSVYLQMNSLKPEDTAVYYCADRTRGSSRGDYDYWGQGTQVTVSS
polyreactivity (PSR sort gate): high polyreactivity

QVHLVESWGCLVQAGGSLRLSCAASGSTFTGYAMGWYRHAPGKESEMVAAISRSGGSTSAADSVKGRFTISRDNAKNTVYLQMNSLKPEDTAVYYCAAQVQGTTRDKQRGGIGELDYWGQGTQVTVSS
polyreactivity (PSR sort gate): low polyreactivity

QVQLVESGGGLVQAGGSLRLSCAASGSIFSIYAMGWYRQAPGKERELVAAIDSGTSTTYADSVKGRFRISRDNAKKTVYLQMKSLKPEDTAVYYCAAALYSDVAAVATFGYYWGQGTQVTVSS
polyreactivity (PSR sort gate): low polyreactivity

QVQLVESGGGLVQAGGSLRLSCAASGSIFAPNAMGWYRQAPGKERELVAAISRSGGRTYYADSVKGRFTISRDNAKNTVYFQMNSLKPEDTAVYYCAADYKHQRTYGSWGQGTQVTVSS
polyreactivity (PSR sort gate): high polyreactivity

QVQLVESGGGLVQAGGSLRLSCAASGYIFKYYVMGWYIQAPGKERELVAGISSTGGTTYYADSVKGRFTISRDNAKNTVYLQMNSLKPEDSAVYYFAADRVYEASQGYTYFDYDYWGQGTQVTVSS
polyreactivity (PSR sort gate): low polyreactivity

QVQLVESGGGLVQAGGSLRLSCAASGSIFQGNAMGWYRQAPGKERELVAGITRSGGSTYYADSVKGRFTISRDNAKNTVYLQMNSLKPEDTAVYYCAADYSSDGDYWGQGTQVTVSS
polyreactivity (PSR sort gate): low polyreactivity

QVQLVESGGGLVQAGGSLRLSCAASGSIFTTNAMGWYRQAPEKERELVATITWSDGSTYYADSVKGRFTISRDNAKNTVYLQMNSLKPEDTAVYYCATPYKRYFYKGGDYWGQGTQVSVSS
polyreactivity (PSR sort gate): low polyreactivity

QVQLVESGGGLVQAGGSLRLSCAASGIIFVKYAMGWYRQAPGKERELVAAINWRTGRTYYADSVKGRFTISRDNAKNTVYLQMNSLKPEDTAVYYCAADVGIVIRLGRTEESGYYWGQGTQVTVSS
polyreactivity (PSR sort gate): low polyreactivity

QVQLVESGGGLVQAGGSLRLSCAASGSIFYKNAMGWYRQAPGKERELVAAISSSGGSTRYADSVKGRFTISRDNSKNTVSLQMNSLKPEDTAVYYCAASGSRTSRGYWGQGTQVTVSS
polyreactivity (PSR sort gate): high polyreactivity

QVQLVESGGGLVQAGGSLRLSCAASGFTFGLYAMGWYRQAPGKERELVAVISSSGGSTYDADSVKGRFTISRDNAKNTVYLQMNSLKPEETAVYYCAAEWHDYKFDVTYDYWGQGTQVTVSS
polyreactivity (PSR sort gate): low polyreactivity

QVQLVESGPGLVQAGGSLRLSCASSGFIFRNYPMGWYRHAPGKERELVASISRGTSTNYADSVKGRFTISRDNAKNTVYLQRNSLKPEDTAVYYCNKRFYYHPFDYWGQGTQVTVSS
polyreactivity (PSR sort gate): high polyreactivity

QVQLVESGGGLVQAGGSLRLSCAASGYTFDANDMGWYRQAPGTERELVARITWTGGNTYADSVKGRFTISRDNAKNTVYLQMNSLKPEDTAVYYCNAELGYVSSENYWGQGTQVTVTS
polyreactivity (PSR sort gate): low polyreactivity

QVQVVESGGGLVQAGGSLRLSCAASGFTFSFYAMGWYRQAPGKERELVAAISSGGTTSYADSVKGRFTISRDYAKNTVYLQMNSLKPEDTAVYYCATDVYYYRTGAYTSTKPYDYWGQGTQVTVSS
polyreactivity (PSR sort gate): low polyreactivity

QVQLVESAGGLVQAGGSLRITCAASGINFTFYTMGWYRQAPGKERELVAAITWSGGSTNYADSVKGRFTISRDNAKNTVYLQMNSLKPEDTAVYYCAAQGYPQSPPWEDYWGQGTQVTVSS
polyreactivity (PSR sort gate): low polyreactivity

QVQLVESGGGLVQAGGSLRLSCAASGRIFYPYAMGWYRQAPGKERELVAAIDFSDGNSYYADSVKGRFTISRDNAKNTVYLQMYSLKPEDTAVYYCAVDYTGAWIGVWYDYWGLGTQVTVSS
polyreactivity (PSR sort gate): high polyreactivity

QVQLVESGGGLVQAGGSLRLSCAASGRSIYGYALGWYRQATRKERELVAAIHSGGSTYYADSVKGRFTISRDNAKNTVYLQKNSLKPEDTAVYYCAGYTAYRSRAYFYYWGQGTQVTVSS
polyreactivity (PSR sort gate): high polyreactivity

QVQLVESGGGLVQAGGSLRLSCAASGRTIDHYAMGWYRQAPGKDRELVAAISTTGGSTYYADSVKGRFTISRDNAMNTVYLQMNSLKPEDTAVYFCAARGLRTGGYWGQGTQVTVSS
polyreactivity (PSR sort gate): high polyreactivity

QDQLVESGGGLVQAGGSLRLSCAASGSTFSNYAMGWYRQAPGKERELVASISQSGGSTYYADSVKGRFTISRDNAKNTVYLQMNSLKPEDTAVYYCAADVAQVGYQVGVSEIYPGYEYWGQGTQVTVSS
polyreactivity (PSR sort gate): low polyreactivity

LVQLVESGGGLVQAGGSLRLSCAASGRTFDTYVMGWYSQAPGKERELVAAITTSGTSTYADSVKGRFTISRDNAKNTVYLQMNSLKPEDTAVYYCAADGPVYYSYVDWISFNEEYWGQGTQVTVSS
polyreactivity (PSR sort gate): low polyreactivity

QVQLVESGGGLVQAGGSLRLSCAASGSTFQTNAMGWYRQAPGKERELVAGIRWRGGSTYYADSVKGRFTISRDNAKNTVYLQMNSLKPEDSAVYYCAAYYLWHHYLFDYWGQGTQVTVSS
polyreactivity (PSR sort gate): high polyreactivity

QVQLVESGGGLVQAGGSLRLSCAASGSTFTPNARGSYRQAPGKERELVAAINYLGGSTYYADSVKGRFTISRDNAKNTVYVQMNSLKPEDTAVYYCARRQYFRGQRYDYWGQGTQVTVSS
polyreactivity (PSR sort gate): high polyreactivity

QFHLVESGGGLVQAGGSLRLSCAASGYTFGKYAKGWYRHAPGKDRELVAGISSRGGSTYYADSVKWRFTISRDNAKNTVYLQMISLKPEYTAVYYCAAVAYTGGPRKLSFNYWGQGTQVTLSS
polyreactivity (PSR sort gate): high polyreactivity

QVQLVESGGGLVQAGGSLRLSCAASGFTFGRYDMGWYRQAPGKERELVAAISSGGNTYYADSVKGRFTISRDNAKNTVYLQMNSLKPEDTAVNYCNARTSYYSRFDYWGQGTQVTVSS
polyreactivity (PSR sort gate): high polyreactivity

QVQLVESGRGLVQAGCSLRLSCAASGSILHYNAMGWYRQAPGKERELVASITNSGRTYYADSVKGRFTISRDNAKNTDYLHMNSLKPEDTAVYYCAAQGTWRYFGHRHNYWGQGTQVTVSS
polyreactivity (PSR sort gate): high polyreactivity

QVQLVESGGGLVQAGGTLRLSCAASGRIFRVYAMGWYRQAPGKERELVATITRGGSTYADSVKGRFTISRDNAKNTVYLQMNSLKPEDTAVYYCAADLVLGYRYDYWGQVTQVTVSS
polyreactivity (PSR sort gate): high polyreactivity

QVQLVESGGGLVQAGGSLRLSCAASGRIFVRYDRGWYRQAPGKERELVAAISSSDGSTYYADSVKGRFTISRDNAKNTVYLQMNSLKPEDTAVYYCNADVSLDDYDYWGQGTQVTVSS
polyreactivity (PSR sort gate): low polyreactivity

QVQLVESGGGLVQAGGSLRLSCAASGYILRSHAMGWYRQAPGKEWEFVAAITYSGGSTYYADSVKGRFTISRDNAKNTVYLQLNSLKPEVTAVYYCSKTTRYPRGYGYWGQGTQVTVSS
polyreactivity (PSR sort gate): low polyreactivity

QVQLVESGGGLVQAGGSLRLSCAASGSIFEGNGMGWNRQEPGNVRELVAAITFRSGSTYYADSVKGRFTISRDNAKNSVYLQMNSLKPEDTAVYYCAADEYYQVSAYDYWGQGTQVTVSS
polyreactivity (PSR sort gate): low polyreactivity

QVQLVESGGGLVQAGGSLSLSCAASGRTFLIYAMGWYRQAPGKERELVAAITSGDNTYYADSVKGRFTISRDNAKNTVYLQMNSLKPEDTAVYYCAAGGYVRNYYTYEHWGQGTQVTVSS
polyreactivity (PSR sort gate): low polyreactivity
